Measurements from the supplement of paper PMC9732359.
± gives the uncertainty stated by the source.

Experiment: protein stability index of a GFP-peptide fusion (yeast GPS) (PSI 1-4); higher = more stable; sorted into four equal gates, so the index is relative within each strain
Method in brief: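 Tiled 17-residue yeast protein peptides were fused downstream of GFP in a plasmid that also expresses Cherry, and the pooled library was carried in yeast. Mid-log cultures in leucine-free medium were sorted into four equal gates by GFP/Cherry fluorescence ratio, and plasmids from each gate were PCR-amplified and Illumina-sequenced, with reads assigned to strains by barcodes. The protein stability index for each peptide was each gate's read frequency times its gate number, summed.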

Sequence	protein stability index (doa10∆)	protein stability index (pdr5∆)	protein stability index (san1∆)	protein stability index (ubr1∆)
SDREMAALIASKVYYNL [RPN2]	1.91 ± 0.06	1.83 ± 0.056	1.5 ± 0.055	1.7 ± 0.045
SGRNIHLAVVCVDDNSK [SSN2]	2.14 ± 0.087	1.61 ± 0.045	1.48 ± 0.085	2.96 ± 0.045
NNANVLGGEINDNEDDD [BRR2]	3.3 ± 0.095	3.2 ± 0.082	3.3 ± 0.072	2.98 ± 0.061
NGGLIHVVTREKGPQVC [RPO21]	2.93 ± 0.14	3.09 ± 0.11	2.37 ± 0.13	2.96 ± 0.12
YLSGAIPNQEVLQYSDW [YDL116W/NUP84]	2.37 ± 0.12	1.83 ± 0.074	2.29 ± 0.051	2 ± 0.071
LEQKIHEVEEILNELQP [SMC1]	3.04 ± 0.15	2.73 ± 0.22	2.99 ± 0.17	3.14 ± 0.2
NGAGGLMYATDWQMMTS [CSL4]	3.23 ± 0.15	2.93 ± 0.12		2.99 ± 0.09
KTKTSLLPTIKRTICKK [RPR2]	3.27 ± 0.11	3.18 ± 0.13	2.49 ± 0.18	3.29 ± 0.13
PLAAGNFVSEKGDLRRG [RPC53]		3.4 ± 0.19	3.31 ± 0.17	3.24 ± 0.11
GMVSHKTARGKAALERL [RPL16A]			3.17 ± 0.13	
ACLGNDGILRLYDALEP [YGL100W/SEH1]	2.21 ± 0.058	2.19 ± 0.048	1.86 ± 0.065	1.96 ± 0.034
SGWTPFHIACSVGNLEV [NAS6]	1.8 ± 0.095	1.89 ± 0.074	1.68 ± 0.1	1.94 ± 0.11
DMDAESNESQNGKDSEI [SMC3]	3.42 ± 0.12	3.22 ± 0.096	2.89 ± 0.1	3.31 ± 0.038
NFLDNCLFENDLQRLKP [ITC1]	2.61 ± 0.051	3.07 ± 0.063	2.94 ± 0.048	3.06 ± 0.034
ISDDDDSALRYSILGDR [POP4]	3.12 ± 0.066	2.97 ± 0.093	2.61 ± 0.052	2.72 ± 0.089
DFIQNVGRLWDQTFPIN [ECM29]	3.13 ± 0.062	3.35 ± 0.057	3.31 ± 0.043	3.31 ± 0.045
RHLRRTGKVSEFISIYS [RET1]	1.48 ± 0.14	2.05 ± 0.13		1.37 ± 0.14
ETKVDELRYQSHILNSH [DSN1]	2.38 ± 0.067	2.84 ± 0.057	2.79 ± 0.055	3 ± 0.05
NETNDKKRNPSKQNGSK [PRP28]	3.21 ± 0.096	3.15 ± 0.066	3.02 ± 0.051	3.23 ± 0.039
HKNERRVLEIQTSLVRM [SKI6]	2.99 ± 0.091	2.63 ± 0.078	2.44 ± 0.13	2.96 ± 0.053
IAGINKKKGLDENTSGK [PRP28]	3.48 ± 0.067	3.47 ± 0.089	3.44 ± 0.056	3.6 ± 0.075
ELLPHYPFVTNDDIEWM [YJR042W/NUP85]	2.54 ± 0.13	2.93 ± 0.086	2.87 ± 0.065	2.96 ± 0.073
KPYDINVVLVTNDRLNR [DIS3]	1.69 ± 0.085	2.92 ± 0.098	2.96 ± 0.094	3.08 ± 0.094
TNKISPKDFSPNFTGID [SSN2]	2.76 ± 0.13	1.84 ± 0.11	2.9 ± 0.12	2.91 ± 0.057
NVVEIWVFSYLRWFELK [SIR3]	1.31 ± 0.088	1.38 ± 0.066	2.17 ± 0.16	2.21 ± 0.063
KVAPAPFGAKSTKSNKT [RPL8A]	2.68 ± 0.1	2.84 ± 0.076	2.74 ± 0.071	2.94 ± 0.068
MLRRHAAPPSTNFEILN [DIS3]	1.87 ± 0.11	1.8 ± 0.1	1.71 ± 0.18	2.93 ± 0.074

Sequence	protein stability index (doa10∆)	protein stability index (pdr5∆)	protein stability index (san1∆)	protein stability index (ubr1∆)
EEQKSSDTSKPAFTFGA [YJL041W/NSP1]	3.25 ± 0.07	3.15 ± 0.06	2.89 ± 0.059	3.23 ± 0.05
VPSHVPQVLINRDPVKH [SIR2]	2.52 ± 0.13	3 ± 0.088	3.06 ± 0.12	2.76 ± 0.098
QKVNAVDSTFQKVSENF [SMC3]	3.29 ± 0.091	3.28 ± 0.079	3.44 ± 0.06	3.21 ± 0.04
DSTIGNSKVDMKYDIFA [IRR1]	2.82 ± 0.071	2.78 ± 0.082	2.71 ± 0.078	2.88 ± 0.06
GFGLVYNSVAEAKKFEP [RPS24A]	3.22 ± 0.1	3.47 ± 0.13	2.87 ± 0.1	2.8 ± 0.14
RIENPEKYAAAAPAATS [RPP0]	2.95 ± 0.085	3.22 ± 0.11	2.71 ± 0.094	3.16 ± 0.057
TFAVILFLIIQCYKIYD [YMR129W/POM152]	1.35 ± 0.057	1.22 ± 0.046	1.19 ± 0.094	1.31 ± 0.053
REIDALKKQLHVSHEAM [YIL149C/MLP2]	2.88 ± 0.05	2.97 ± 0.047	2.91 ± 0.048	2.82 ± 0.049
NNVDNKYKSGGKFSFSP [SSN2]	2.23 ± 0.054	2.37 ± 0.044	2.63 ± 0.064	2.17 ± 0.038
GAIDEALEEAKLSDNIS [YDL116W/NUP84]	3.17 ± 0.11	3.25 ± 0.091	3.41 ± 0.07	3.3 ± 0.045
RDEMSKAELPQWYTLQS [MED8]	2.92 ± 0.05	3.12 ± 0.043	2.87 ± 0.038	3.01 ± 0.043
MVEGDSYVETLDSMIEL [MED1]	3.25 ± 0.084	3.24 ± 0.1	3.33 ± 0.051	3.19 ± 0.053
TLKKEWLKEYEDETLRR [YIL149C/MLP2]	3.12 ± 0.21	3.2 ± 0.18		3.52 ± 0.12
RGRSVMKESVVEINSSE [ESC2]	3.15 ± 0.11	2.83 ± 0.14	3.09 ± 0.17	2.98 ± 0.1
DALLNSTTEHINIDDLL [YJL039C/NUP192]	2.47 ± 0.24	2.73 ± 0.12	2.59 ± 0.092	3.17 ± 0.059
ISVTRQVVLGGTSKYLI [SMC2]	2.65 ± 0.074	2.96 ± 0.14	2.79 ± 0.068	2.73 ± 0.062
MGKKTFREWQYFKLSIT [POP8]	1.5 ± 0.046	1.76 ± 0.045	1.47 ± 0.099	1.71 ± 0.042
TREDVSPHYNSQKQTLI [SSN3]	2.16 ± 0.05	2.71 ± 0.05	2.15 ± 0.048	2.81 ± 0.051
NSDDFFMDNSYDIDEID [ESC2]	2.27 ± 0.058	2.64 ± 0.077	2.64 ± 0.075	2.31 ± 0.051
LTDPMTVMFFYHNKHMM [DIB1]	2.19 ± 0.075	2.04 ± 0.061	2.33 ± 0.094	1.76 ± 0.041
ELLEYSDDIAENDNLDN [YCG1]	3.06 ± 0.058	3.27 ± 0.068	3.21 ± 0.049	3.25 ± 0.054
IAQGIDLVRDIDIDKLI [SRP72]	1.65 ± 0.14	1.23 ± 0.12	1.58 ± 0.21	1.1 ± 0.16
YSMISLQNCCIIDVGTH [ARP9]	1.75 ± 0.085	1.41 ± 0.067	1.2 ± 0.15	1.33 ± 0.083
MRELGLIQSTEFPSITS [YOR098C/NUP1]	3.12 ± 0.1	3.29 ± 0.092	2.21 ± 0.12	3.17 ± 0.078
GLVNPKTVQSMTQRAIQ [SWI3]	3.25 ± 0.14	2.25 ± 0.14	2.39 ± 0.14	2.05 ± 0.092
DHINWEHIKQDYVASLN [NSL1]	3.12 ± 0.069	3.23 ± 0.069	2.72 ± 0.058	2.9 ± 0.056
